This note sets out measurements from CN111732654A (WUHAN INST OF BIOLOGICAL PRODUCTS CO LTD, dated 2020).

Assay [1] concerns the target SARS-CoV-2刺突S1-His重组蛋白 (Sino公司，货号:40591-V08H) (SARS-CoV-2 (2019-nCoV), UniProt P0DTC2 16-685).
In assay [2] the target is SARS-CoV-2刺突蛋白S1的RBD结构域重组蛋白 (Sino公司，货号40592-V05H) (SARS-CoV-2 (2019-nCoV), UniProt P0DTC2 319-541).

B1: 单克隆抗体1E10 (人源抗SARS-CoV-2抗体1E10) (antibody, V domains shown)
VH: EVQLVQSGAEVKKPGSSVKVSCKASGGTFSSYAISWVRQAPGQGLEWMGRIIPILGIANYAQKFQGRVTITADKSTSTAYMELSSLRSEDTAVYYCAREVSDFDWLYRSHYGMDVWGQGTTVTVSS
VL: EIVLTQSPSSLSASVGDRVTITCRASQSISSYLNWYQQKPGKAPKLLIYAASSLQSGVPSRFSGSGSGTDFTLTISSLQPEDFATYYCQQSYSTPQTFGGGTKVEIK
With B1, the values for the concentration giving a half-maximal response (EC50) in assay [1] and in assay [2] were 0.029 nM and 0.044 nM, respectively.

Broadly, the EC50 is the concentration that produces a half-maximal response.
